Measurements from article PMC6748616 (mAbs, 2019).

T1: IgV domain of cynomolgus SIRPα (Macaca fascicularis, EHH65484.1 allele)
T1 chain: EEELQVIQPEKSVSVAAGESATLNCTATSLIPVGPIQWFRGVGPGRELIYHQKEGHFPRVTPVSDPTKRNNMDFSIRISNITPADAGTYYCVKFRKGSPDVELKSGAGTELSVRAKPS

T2: IgV domain of mouse NOD SIRPα (Mus musculus, strain NOD, strain)
T2 chain: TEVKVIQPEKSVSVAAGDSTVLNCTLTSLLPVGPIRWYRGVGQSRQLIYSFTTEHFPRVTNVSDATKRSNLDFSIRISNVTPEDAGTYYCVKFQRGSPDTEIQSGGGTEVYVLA

T3: IgV domain of mouse BALB/c SIRPα (Mus musculus, strain BALB/c, strain)
T3 chain: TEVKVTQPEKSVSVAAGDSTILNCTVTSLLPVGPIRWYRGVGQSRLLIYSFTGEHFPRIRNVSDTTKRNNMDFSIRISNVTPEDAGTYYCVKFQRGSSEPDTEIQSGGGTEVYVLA

B1: anti-SIRPα antibody clone 119, full-length IgG1 (antibody, V domains shown)
VH: DVQLLESGGGVVQPGGSLRLSCAASGFSFSNFAMTWVRQAPGEGLEWVSTIGSGDTYYADSVKGRFTISRDNSKNTLYLQMNSLRAEDTAVYYCAKDSTVSWSGDFFDYWGQGTLVTVSS
VL: EIVLTQSPATLSVSPGERATFSCRASQNVKNDLAWYQQRPGQAPRLLIYAARIRETGIPERFSGSGSGTEFTLTITSLQSEDFAVYYCQQYYDWPPFTFGGGTKVEIK
B2: anti-SIRPα antibody clone 115, full-length IgG1 (antibody, V domains shown)
VH: DVQLVESGGGVVRPGESLRLSCAASGFSFSSYAMNWVRQAPGEGLEWVSRINSGGGGTDYAESVKGRFTISRDNSENTLYLQMNSLRAEDTAVYYCAKQYDWNSFFDYWGLGALVTVSS
VL: ETVLTQSPATLSVSPGERATLSCRASQTVGSKLAWHQQKPGQAPRLLIYDATNRATGISDRFSGSGSGTDFTLTISSLQTEDSAVYYCQQYYYWPPYRFGGGTKVEIK
B3: anti-SIRPα antibody clone 136, full-length IgG1 (antibody, V domains shown)
VH: not shown
VL: ETVLTQSPGTLTLSPGERATLTCRASQSVYTYLAWYQEKPGQAPRLLIYGASSRATGIPDRFSGSGSGTEFTLTISSLQSEDFAVYYCQQYYDRPPLTFGGGTKVEIK
B4: anti-SIRPα antibody clone 3, full-length IgG1 (antibody, V domains shown)
VH: AVTLDESGGGLQTPGGALSLVCKASGFIFSDYGMNWVRQAPGKGLEFVAQITSGSRTYYGAAVKGRATISRDNRQSTVKLQLNNLRAEDTGIYFCARDFGSGVGSIDAWGNGTEVIVSS
VL: ALTQPASVSANLGGTVKITCSGSRGRYGWYQQRSPGSAPVTVIYRDNQRPSNIPSRFSSSTSGSTSTLTITGVQADDESVYFCGSYDGSIDIFGAGTTLTVL
B5: anti-SIRPα clone 218, scFv-Fc (scFv, V domains shown)
VH: DVQLVESGGGVVRPGESLTLSCTASGFTFTSSTMNWVRQAPGEGLDWVSSISTSGVITYYADSVKGRATISRDNSKNTLYLRLFSLRADDTAIYYCATDTFDHWGPGTLVTVSS
VL: ALTQPASVSANPGETVKITCFGSSGNYGWFQQKSPGSAPVTVIHYNNKRPSDIPSRFSGSKSGSTGTLTITGVRAEDEAVYFCGAWETGSATFGAGTTLTVL

What follows are binders tested against IgV domain of human SIRPβ1 (Homo sapiens, SIRPβ1 NP_006056.2, UniProt O00241) (assay: SPR).

In order of rising Kd:
1. B1  0.342 nM
2. B4  1.63 nM
3. B3  4.35 nM

B2: binds.
B5: binds.

Molecular target: T1, IgV domain of cynomolgus SIRPα
Test: SPR

In order of falling Kd:
1. B2  2.41 nM
2. B4  2.29 nM
3. B3  2.15 nM
4. B1  0.112 nM
5. B5  0.0599 nM

Each binder was assayed against IgV domain of human SIRPγ (Homo sapiens, SIRPγ NP_061026.2, UniProt Q9P1W8) (assay: SPR).

In order of rising Kd:
1. B5  0.0636 nM
2. B1  0.267 nM
3. B3  23.9 nM
4. B4  83.6 nM

B2: binds.

These binders were tested against IgV domain of mouse C57BL/6 SIRPα (Mus musculus, strain C57BL/6, UniProt P97797, strain) (assay: SPR).

B1: no binding (tested: 100 nM).
B2: no binding (tested: 100 nM).
B5: no binding (tested: 100 nM).

In order of falling Kd:
1. B3  12.7 nM
2. B4  3.65 nM

Each binder was assayed against IgV domain of human SIRPα v1 (Homo sapiens (Human)., UniProt P78324-1) (assay: SPR).
Sequence of IgV domain of human SIRPα v1 (P78324 31-149): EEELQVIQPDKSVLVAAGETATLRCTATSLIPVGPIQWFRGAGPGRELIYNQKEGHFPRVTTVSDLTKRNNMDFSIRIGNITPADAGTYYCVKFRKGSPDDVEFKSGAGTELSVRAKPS

In order of falling Kd:
1. B3  0.458 nM
2. B2  0.426 nM
3. B1  0.183 nM
4. B4  0.162 nM
5. B5  0.123 nM

Molecular target: T2, IgV domain of mouse NOD SIRPα
Test: SPR

In order of rising Kd:
1. B3  0.554 nM
2. B4  1.63 nM

Molecular target: T3, IgV domain of mouse BALB/c SIRPα
Test: SPR

In order of rising Kd:
1. B3  0.35 nM
2. B4  1.16 nM

What follows are binders tested against IgV domain of human SIRPα v2 (Homo sapiens, SIRPα allele v2 …, strain) (assay: SPR).

In order of falling Kd:
1. B2  1.86 nM
2. B3  1.63 nM
3. B5  0.276 nM
4. B4  0.0767 nM
5. B1  0.0682 nM
